Data as given in the supplement of paper PMC9170038.

System: MS2 coat protein
Test: apparent KD of MS2 coat protein; designed switch direction (-1 OFF switch, 1 ON switch): 1; higher = weaker reporter binding
How it was run: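 Apparent KD, taken as the median over clusters for each design, was obtained by curve-fitting normalised cluster fluorescence. Designed RNA switches had been transcribed on Illumina chips by stalled E. coli RNA polymerase and titrated with SNAP-549-labelled MS2 coat protein, doubling from 0.7 or 1.5 nM to 3 µM.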

[1] = Eterna round: R95, input ligand: FMN 200 uM
[2] = Eterna round: R95, input ligand: microRNA oligo, concentration not stated
[3] = Eterna round: R95, input ligand: none
[4] = input ligand: microRNA oligo, concentration not stated

Row | Sequence | apparent KD of MS2 coat protein [1] | apparent KD of MS2 coat protein [2] | apparent KD of MS2 coat protein [3] | apparent KD of MS2 coat protein (input ligand: FMN 200 uM) | apparent KD of MS2 coat protein [4] | apparent KD of MS2 coat protein (input ligand: none)
1 | GGAGCCGGCACCGAGGAUAUUCAUAUUAAAACAUGAGGAUCACCCAUGUAGGCCAGAAGGCCUUGGGAGAAGGCGGACCGGCUCG [Xeonanis - 4] (puzzle: Same State 2) | 24 nM | 520 nM | 664 nM |  |  | 
2 | GGAGCCGGCACUGAGGAUAUUCAUAGUGUAACAUGAGGAUCACCCAUGUAGGCCCUGAGGCCUUGGGAGAAGGCAGGUCGGCUCG [JL-ss2-3.04 ViennaUCT mod] (puzzle: Same State 2) | 31.8 nM | 239 nM | 445 nM |  |  | 
3 | GGAGCCGGUACUGAGGAUAUUCAUCUUAAAACAUGAGGAUCACCCAUGUAGGCCAGAAGGCCUUGGGAGAAGGCAGAUCGGCUCC [Biseusra - 7] (puzzle: Same State 2) | 20 nM | 52.2 nM | 66 nM |  |  | 
4 | GGAGGACAUGAGGAUCACCCAUGUGGAUGGGCGCUAGGAUAUGCGAGAGGAGGGAGUGGAGCAGAAGGAGUGGGUU [JR_SS1_Sub043] (puzzle: Same State 1) |  | 50.3 nM |  |  |  | 
5 | GGAGUCGGCACUGAGGAUAUUCAUAUUUAAACAUGAGGAUCACCCAUGUAGGCCAGAAGGCCUUGGGAGAAGGCAGGUCGGCUCG [salish99_ss2_r3_084] (puzzle: Same State 2) | 22.5 nM | 154 nM | 241 nM |  |  | 
6 | GGAUCGUCGGCAGGAUAUGAGCAAGUGCAUCGAUCAGAAGGGUCGAGUCCUAGAAGGUAAAGCACAUGAGGAUCACCCAUGUAG [Eternabot solution 39] (Eterna round: R96, puzzle: Same State NG 1) |  |  |  | 40.7 nM | 63.7 nM | 96.3 nM
7 | GGCAGGUGCAGGCUUGCUUGCACCUGGAAACAUGAGGAUCACCCAUGUUUGGGACAAGCUUUGCUCCUCGUCUUGUC [JL ViennaUCT Isusreraar mod 2] (Eterna round: R96, puzzle: Sensor for hsa-mir-208a) |  |  |  | 38.4 nM | 39.2 nM | 42.8 nM
8 | GGCAGGUGCAGGCUUGCUUGCACCUGGAAACAUGAGGAUCACCCAUGUUUGGGACAAGCUUUGCUCCUCGUCUUGUC [JL ViennaUCT Isusreraar mod 2] (puzzle: Sensor for hsa-mir-208a) | 28.2 nM | 36.5 nM | 36.7 nM |  |  | 
9 | GGCCAGAGUCAAGGAUAUGCUACCGUUUCGGUAGCAGAAGGUGAUCACAUGAGGAUCACCCAUGUAUACUGCGAGAGUAGGGCC [JL SSNG1 3.66] (Eterna round: R96, puzzle: Same State NG 1) |  |  |  | 94.5 nM | 23.6 nM | 197 nM
10 | GGCCAGAGUCAAGGAUAUGCUACCGUUUCGGUAGCAGAAGGUGAUCACAUGAGGAUCACCCAUGUUUACUGCGAGAGCAUGGCC [JL SSNG1 3.68] (Eterna round: R96, puzzle: Same State NG 1) |  |  |  | 809 nM | 103 nM | 34.1 nM
11 | GGCCAGAGUCAAGGAUAUGCUACCGUUUCGGUAGCAGAAGGUGAUCACAUGAGGAUCACCCAUGUUUACUGCGAGAGUAUGGCC [JL SSNG1 3.67] (Eterna round: R96, puzzle: Same State NG 1) |  |  |  | 661 nM | 197 nM | 214 nM
12 | GGCGAACAGGCUAACAUGAGGAUCACCCAUGUGGACUUCGUGUAGGAUAUCGGGAAGGAGGAAACCGAGAAGGGCGAAGAAGCC [AK SSNG3-V2-49.1] (Eterna round: R96, puzzle: Same State NG 3) |  |  |  | 55.2 nM | 48.1 nM | 55.1 nM
13 | GGCGCCGGCGCAGGAUAUAAUAGCACCAACAAAUUAGAAGGGUGUCUGACUUAAACAUGAGGAUCACCCAUGUGCGCCACAAAA [Eternabot solution 2] (Eterna round: R96, puzzle: Same State NG 1) |  |  |  | 198 nM | 137 nM | 311 nM
14 | GGCUAUCGCGUACGAUAGCUGAAGCGUGUACAUGAGGAUCACCCAUGUCAUGUACAAGCUUUUUGCUCGUCUUAUUG [JL-shm-2.33 JL mod] (puzzle: Sensor for hsa-mir-208a) | 155 nM | 18.2 nM | 328 nM |  |  | 
15 | GGGCCAGCUUGUGCUGGGCCUUCGCAUGCACAUGAGGAUCACCCAUGUCGUGUACAUGCUUGGUGCCCGUCUUUAAA [Photon Torp-13] (puzzle: Sensor for hsa-mir-208a) | 102 nM | 13.9 nM | 103 nM |  |  | 
16 | GGGUGUGGAAGGAAAGAUAGGAAAAGGAAACAUGAGGAUCACCCAUGUGAAGGAAGAAAGGGAGCUCGUCUUAUAAG [JR_SHM208A_Sub001] (puzzle: Sensor for hsa-mir-208a) | 27.4 nM | 22.8 nM | 23.5 nM |  |  | 
17 | GGUAGGUUACUACCAAACAUGAGGAUCACCCAUGUAAGUGGGAAGGAUAUGGUACCUUUUAGGUACCAGAAGGUCCAUAUAGUU [JL Fiskers NG3ss - 2 mod 9] (Eterna round: R96, puzzle: Same State NG 3) |  |  |  | 405 nM | 141 nM | 501 nM
18 | GGUAGGUUACUACCAGACAUGAGGAUCACCCAUGUAAGUGGGAAGGAUAUGGUACCUUUUAGGUACCAGAAGGUCCAUAUAGUU [JL SSNG3 1.43] (Eterna round: R96, puzzle: Same State NG 3) |  |  |  | 253 nM | 429 nM | 1080 nM
19 | GGUAGGUUACUACCAUACAUGAGGAUCACCCAUGUAAAUGGGAAGGAUAUGGUACCUAUUUGGUACCAGAAGGUCCAAUUAAUU [JL Fiskers NG3ss - 2 mod 3] (Eterna round: R96, puzzle: Same State NG 3) |  |  |  | 148 nM | 446 nM | 706 nM
20 | GGUAUCUCCAGUGAGGAUAUGCGGCGUAGAACAUGAGGAUCACCCAUGUCCUUCGAAUGGGUUACGCAGAAGGCACUACGGUACC [Robot Arm] (puzzle: Same State 2) |  | 30.1 nM |  |  |  | 
21 | GGUAUGGACACAGGAUAUGCUUACGAAACGUAAGCAGAAGGGUGAACAUGAGGAUCACCCAUGUACGUGCCAGGGCGUGAGCCC [JL SSNG1 1.77] (Eterna round: R96, puzzle: Same State NG 1) |  |  |  | 1420 nM | 29.8 nM | 920 nM
22 | GGUAUUGACACAGGAUAUGCUUACGAAACGUAAGCAGAAGGGUGAACAUGAGGAUCACCCAUGUAUGUACCAGGGCGUGAGCCC [JL SSNG1 1.74] (Eterna round: R96, puzzle: Same State NG 1) |  |  |  | 169 nM | 875 nM | 1880 nM
23 | GGUCCAGCCUGAGCUGGACAAAAGCAUGUACAUGAGGAUCACCCAUGUUCAUGUACAAGCUUUUUGCUCGUCUUAAG [salish99_208a_r3_037] (puzzle: Sensor for hsa-mir-208a) | 719 nM | 18 nM | 740 nM |  |  | 
